Experimental findings from the RNAGym collection of RNA variant scans (doi:10.1073/pnas.2313332121) are described below.

Sequences and labels used below:
B1: TPR t1 (parent)
chain: GACCAAUCUGCCCUCAGAGCUCGAGAACAUCUUCGGAUGCAGAGGAGGCAGGCUUCGGUGGCGCGAUAGCGCCAACGUCCUCAACCUCCAAUGCAUCCCACCACAUGAUGAUGCCUGAAGAGCCUUGGUUUUUUG

The data set covers variants of B1. Nature of the data set: polymerase ribozyme fitness, log enrichment relative to wild type (log ratio); higher = more active; in vitro selection for triplet polymerase activity. In outline:
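To select mutant libraries of each subunit of a heterodimeric triplet polymerase ribozyme, built by PCR and transcribed, each was annealed with a biotinylated primer, partner subunit and triplets, then incubated frozen at −7 °C. Extended constructs were gel-excised, captured on streptavidin beads and amplified by RT-PCR, in one round carried out in triplicate. Illumina sequencing of input and output libraries kept genotypes with ≥10 input reads and ≥1 read per output. Fitness is the base-2 logarithm of genotype enrichment relative to wild-type enrichment, from inverse-variance-weighted replicate averages.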
A43U C72U: the “polymerase ribozyme fitness (log ratio)” value is -1.17. For the variant A43U A46U A105U C124G, the “polymerase ribozyme fitness (log ratio)” value is -4.04.

With G45A G51U G58U A74U C80A, the “polymerase ribozyme fitness (log ratio)” value is -0.751. With A43U G63C G117C, the “polymerase ribozyme fitness (log ratio)” value was -4.52. G44U G45U G60C C101U A121G U131C: the “polymerase ribozyme fitness (log ratio)” value is -0.695. Regarding G45U C49A, the “polymerase ribozyme fitness (log ratio)” value is -0.895.

For G44A C49U C76G C88G, the “polymerase ribozyme fitness (log ratio)” value is -3.44. For the variant G45C G60C C79A, the “polymerase ribozyme fitness (log ratio)” value was -1.42. Turning to G44A A121G, the “polymerase ribozyme fitness (log ratio)” value was 1.53.

For A46C C104A A118U C123G, the “polymerase ribozyme fitness (log ratio)” value was -1.15.

Consider G45A U112A, for which the “polymerase ribozyme fitness (log ratio)” value is 1.41. In the case of G45U G48A U132C it was -1.5.

With G45U C72G, the “polymerase ribozyme fitness (log ratio)” value was -1.73. Then G45U A46C A91C, with -2.71; and G44C G63A, with 0.0487; and A43U C70U, with -2.1. For the variant A43U G44A C76G A111C, the “polymerase ribozyme fitness (log ratio)” value is -2.36. For the variant A43U U87A G110A, the “polymerase ribozyme fitness (log ratio)” value was -4.16.

G44A C89U C123U C124U: the “polymerase ribozyme fitness (log ratio)” value amounted to 1.33. Regarding G45A G48A G51U A83U U126G, the “polymerase ribozyme fitness (log ratio)” value was -5.24. In the case of G45U A105U it was -3.16.

On to G44C G61C U78C C98A G113U, for which the “polymerase ribozyme fitness (log ratio)” value was -7.8. In the case of G44A C82A it was -1.69. In the case of G45A C73A U133G it was -0.489. In the case of A43U G77U C88G, the “polymerase ribozyme fitness (log ratio)” value was -2.17. Take G44A G61U C88G: the “polymerase ribozyme fitness (log ratio)” value was -2.64.

On to G44U C56A C102U, for which the “polymerase ribozyme fitness (log ratio)” value was -3.03.

For the variant G44A U55C U81A, the “polymerase ribozyme fitness (log ratio)” value is -2.83. On to G44A G71C U125A U129C, for which the “polymerase ribozyme fitness (log ratio)” value was -4.8. Then G45A C89U, with -1.44; and G44U G69U, with -0.207. As for A43U A46G U96G U112A G128A, the “polymerase ribozyme fitness (log ratio)” value was -3.6.

With G44A G110U, the “polymerase ribozyme fitness (log ratio)” value was -2.5. On to A46C C76A C86U C104U, for which the “polymerase ribozyme fitness (log ratio)” value is -0.577.

As for G45U A83C G93U U116C C123G, the “polymerase ribozyme fitness (log ratio)” value is -4.31. For G45C C56G C89A, the “polymerase ribozyme fitness (log ratio)” value was -2.69.

Turning to G44C C53U C86A A95U C101U, the “polymerase ribozyme fitness (log ratio)” value was -3.19. In the case of A43U U112C A119U it was -0.989; in that of A43U A46U U106A U131A, -2.17. Regarding G45U A84C U96A G110A U131A, the “polymerase ribozyme fitness (log ratio)” value is -3.98. In the case of G44U C56U U87C it was -1.16. Turning to G45U G122A, the “polymerase ribozyme fitness (log ratio)” value was -1.14.

For G44C G61U C102A, the “polymerase ribozyme fitness (log ratio)” value is -2.81. G45U C49A C88U A105U G128A: the “polymerase ribozyme fitness (log ratio)” value was -4.94. Take G45U U92A: the “polymerase ribozyme fitness (log ratio)” value is -3.79. Turning to G44U A91C G93A, the “polymerase ribozyme fitness (log ratio)” value was -1.99. Regarding G44A G47U C94A, the “polymerase ribozyme fitness (log ratio)” value was -2.96. As to G44C C76U U81G, the “polymerase ribozyme fitness (log ratio)” value is -5.45. Consider G44A A121C U125G, for which the “polymerase ribozyme fitness (log ratio)” value came out at 0.065. In the case of A43U G60A G120C, the “polymerase ribozyme fitness (log ratio)” value is -1.01. In the case of G44C G71A it was -1.25. With G45U U96A U132A, the “polymerase ribozyme fitness (log ratio)” value was -2.11. Then G45A G63A U67C C82U A84G U96A C98G C124U, with -8.07. Then G44A C72G C79A A83U U112G G122A U132C, with -6.81; and G45U G77U C79U C114G, with -4.37. G44U G48A C86U U92A: the “polymerase ribozyme fitness (log ratio)” value was -4.3. In the case of G45U C56A U59G C101G G120A G128A G135A, the “polymerase ribozyme fitness (log ratio)” value was -3.75. Take G45A C70A C115A: the “polymerase ribozyme fitness (log ratio)” value was -0.928. As for A46C C53A C72A C86A C124G, the “polymerase ribozyme fitness (log ratio)” value stood at 0.771. G45U C97U U112A: the “polymerase ribozyme fitness (log ratio)” value was -0.0204. As to G45U C70U C85U C89A C104U, the “polymerase ribozyme fitness (log ratio)” value was -5.61. A46C G47A A50G U129A: the “polymerase ribozyme fitness (log ratio)” value was -3.12. As to A43U C73U C86U U125G, the “polymerase ribozyme fitness (log ratio)” value was -2.65. In the case of G44A G63A C80A G110U C115G it was -7.37. Then G45A A108G, with -2.36. G44C C49A C101G U112G U131G: the “polymerase ribozyme fitness (log ratio)” value is -4.71. Turning to A43U C123A G128C, the “polymerase ribozyme fitness (log ratio)” value was -2.79. G44U G52C C82G G113A C124U: the “polymerase ribozyme fitness (log ratio)” value is -3.3. In the case of G45C C115U it was -3.17; in that of G45A G60A G110C, -4.86; in that of A43U G63A, -2.51. Turning to A43U G63C, the “polymerase ribozyme fitness (log ratio)” value was -2.12. In the case of G44A C79A it was -3.11; in that of G45U C56U U81G C101G C114A, -5.46. G44A A119U: the “polymerase ribozyme fitness (log ratio)” value was -0.987. Turning to G44A G113A, the “polymerase ribozyme fitness (log ratio)” value was -2.35.

On to G44A C49A C76A U106A, for which the “polymerase ribozyme fitness (log ratio)” value is -3.36. As for G45U G51U A118G G120U, the “polymerase ribozyme fitness (log ratio)” value was -7.09. For G44U G71C G93A, the “polymerase ribozyme fitness (log ratio)” value is -3.04.

With G45A U87G, the “polymerase ribozyme fitness (log ratio)” value was -0.388. With G44U C62A C101G, the “polymerase ribozyme fitness (log ratio)” value was -4.35. Consider G45U G61U, for which the “polymerase ribozyme fitness (log ratio)” value is -0.836. In the case of G45A G51A C79A, the “polymerase ribozyme fitness (log ratio)” value is -3.77.
